Reference: US20220363770A1 (Amgen, published 2022)
Residue numbers refer to the chain shown, from its start. Each block holds one binder with its values, some of them ahead of it.

Columns and labels:
human CGRP receptor = human CGRP receptor (human, UniProt Q16602 23-461; O60894 27-148); assay: cell-based or functional assay
human PAC1 receptor = target: T1, human PAC1 receptor (human, UniProt P41586 24-468); assay: cell-based or functional assay
T1 sequence: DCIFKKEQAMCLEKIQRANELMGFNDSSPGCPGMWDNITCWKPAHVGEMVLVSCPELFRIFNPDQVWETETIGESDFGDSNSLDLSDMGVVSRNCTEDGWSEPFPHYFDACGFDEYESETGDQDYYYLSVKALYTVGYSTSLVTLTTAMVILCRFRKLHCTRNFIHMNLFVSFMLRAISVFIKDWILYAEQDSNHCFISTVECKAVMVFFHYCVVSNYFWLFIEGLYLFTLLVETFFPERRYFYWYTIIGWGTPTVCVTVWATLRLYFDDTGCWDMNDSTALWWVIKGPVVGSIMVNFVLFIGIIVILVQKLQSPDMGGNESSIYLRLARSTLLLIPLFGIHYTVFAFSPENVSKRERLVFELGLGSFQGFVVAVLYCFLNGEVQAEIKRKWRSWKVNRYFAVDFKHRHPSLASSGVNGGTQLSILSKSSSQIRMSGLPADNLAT

human CGRP receptor, sequence (Q16602 23-461 limits assumed, chain 1 of 2): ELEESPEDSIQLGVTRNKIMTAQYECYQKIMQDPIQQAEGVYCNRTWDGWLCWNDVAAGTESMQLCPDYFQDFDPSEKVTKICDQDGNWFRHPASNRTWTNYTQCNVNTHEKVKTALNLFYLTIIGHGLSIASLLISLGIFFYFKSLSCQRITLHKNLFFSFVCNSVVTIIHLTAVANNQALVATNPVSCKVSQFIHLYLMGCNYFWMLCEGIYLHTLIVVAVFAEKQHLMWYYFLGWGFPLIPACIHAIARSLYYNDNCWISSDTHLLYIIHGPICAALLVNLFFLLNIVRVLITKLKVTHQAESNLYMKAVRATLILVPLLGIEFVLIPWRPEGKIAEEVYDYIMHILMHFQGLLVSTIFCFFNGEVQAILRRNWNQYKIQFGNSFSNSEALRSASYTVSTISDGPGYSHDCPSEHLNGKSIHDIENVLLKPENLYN
human CGRP receptor, sequence (O60894 27-148 limits assumed, chain 2 of 2): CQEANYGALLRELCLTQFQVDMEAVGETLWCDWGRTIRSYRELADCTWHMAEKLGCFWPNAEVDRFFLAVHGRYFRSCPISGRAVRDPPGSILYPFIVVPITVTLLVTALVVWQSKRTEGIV

B1: iPS:454895 (bispecific antibody, human IgG1, kappa, lambda, N297G)
light 1: QSVLTQPPSVSAAPGQKVTISCSGSSSNIGNNYVSWYQQLPGTAPKLLIYDNNKRPSGIPDRFSGSKSGTSTTLGITGLQTGDEADYYCGTWDSRLSAVVFGGGTKLTVLGQPKAAPSVTLFPPSSEELQANKATLVCLISDFYPGAVTVAWKADSSPVKAGVETTTPSKQSNNKYAAKSYLSLTPEQWKSHRSYSCQVTHEGSTVEKTVAPTECS
heavy 1: QVQLVESGGGVVQPGRSLRLSCAASGFTFSSFGMHWVRQAPGKGLEWVAVISFDGSIKYSVDSVKGRFTISRDNSKNTLFLQMNSLRAEDTAVYYCARDRLNYYRSFGYYGYHYYGMAVWGQGTTVTVSSASTKGPSVFPLAPSSKSTSGGTAALGCLVKDYFPEPVTVSWNSGALTSGVHTFPAVLQSSGLYSLESVVTVPSSSLGTQTYICNVNHKPSNTKVDKKVEPKSCDKTHTCPPCPAPELLGGPSVFLFPPKPKDTLMISRTPEVTCVVVDVSHEDPEVKFNWYVDGVEVHNAKTKPCEEQYGSTYRCVSVLTVLHQDWLNGKEYKCKVSNKALPAPIEKTISKAKGQPREPQVYTLPPSRKKMTKNQVSLTCLVKGFYPSDIAVEWESNGQPENNYKTTPPVLKSDGSFFLYSKLTVDKSRWQQGNVFSCSVMHEALHNHYTQKSLSLSPGK
light 2: EIVLTQSPATLSLSPGERATLSCRASQSVGRSLHWYQQKPGQAPRLLIKYASQSLSGIPARFSGSGSGTDFTLTISSLEPEDFAVYYCHQSSRLPFTFGPGTKVDIKRTVAAPSVFIFPPSDEQLKSGTASVVCLLNNFYPREAKVQWKVDNALQSGNSQESVTEQDSKDSTYSLESTLTLSKADYEKHKVYACEVTHQGLSSPVTKSFNRGEC
heavy 2: not shown
Fold-improvement over 4E4 Ab (human CGRP receptor): 0.4 fold
IC50 (human CGRP receptor): 1.41 nM
Fold-improvement over 29G4v22 Ab (human PAC1 receptor): 9.4 fold
IC50 (human PAC1 receptor): 0.69 nM

B2: iPS:454557 (5601) (bispecific antibody, human IgG1, kappa, lambda, N297G)
light 1: B1 light 1 with S26Y, N31R, N32Y, Y33S, T72A
heavy 1: B1 heavy 1 with R105E, F107S, G111H, H113K, K370E
light 2: B1 light 2 with Q27K
heavy 2: not shown
Fold-improvement over 4E4 Ab (human CGRP receptor): 1.5 fold
IC50 (human CGRP receptor): 0.39 nM
Fold-improvement over 29G4v22 Ab (human PAC1 receptor): 6.7 fold
IC50 (human PAC1 receptor): 0.61 nM

B3: iPS:454901 (bispecific antibody, human IgG1, kappa, lambda, N297G)
light 1: B1 light 1
heavy 1: B1 heavy 1
light 2: B1 light 2 with Q27K, S28A, R31W
heavy 2: not shown
Fold-improvement over 4E4 Ab (human CGRP receptor): 0.6 fold
IC50 (human CGRP receptor): 1.01 nM
Fold-improvement over 29G4v22 Ab (human PAC1 receptor): 10.9 fold
IC50 (human PAC1 receptor): 0.67 nM

B7: iPS:454899 (bispecific antibody, human IgG1, kappa, lambda, N297G)
light 1: B1 light 1
heavy 1: B1 heavy 1
light 2: B1 light 2 with Q27K
heavy 2: not shown
Fold-improvement over 4E4 Ab (human CGRP receptor): 0.6 fold
IC50 (human CGRP receptor): 1.04 nM
Fold-improvement over 29G4v22 Ab (human PAC1 receptor): 5.2 fold
IC50 (human PAC1 receptor): 1.41 nM

B8: iPS:454731 (bispecific antibody, human IgG1, kappa, lambda, N297G)
light 1: B1 light 1 with S26Y, N31R, N32Y, Y33S, T72A
heavy 1: B1 heavy 1 with R105E, F107S, G111H, H113K
light 2: B1 light 2 with Q27K, S28A, G30W, R31H, S32N, R93M
heavy 2: not shown
Fold-improvement over 4E4 Ab (human CGRP receptor): 1 fold
IC50 (human CGRP receptor): 0.52 nM
Fold-improvement over 29G4v22 Ab (human PAC1 receptor): 1.8 fold
IC50 (human PAC1 receptor): 3.76 nM

B9: iPS:454583 (bispecific antibody, human IgG1, kappa, lambda, N297G)
light 1: B1 light 1 with S26Y, N31R, N32Y, Y33S, T72A
heavy 1: B1 heavy 1 with R105E, F107S, G111H, H113K, K370E
light 2: B1 light 2 with Q27K, R31W
heavy 2: not shown
Fold-improvement over 4E4 Ab (human CGRP receptor): 1.1 fold
IC50 (human CGRP receptor): 0.51 nM
Fold-improvement over 29G4v22 Ab (human PAC1 receptor): 2.8 fold
IC50 (human PAC1 receptor): 2.48 nM

B10: iPS:454585 (bispecific antibody, human IgG1, kappa, lambda, N297G)
light 1: B1 light 1 with S26Y, N31R, N32Y, Y33S, T72A
heavy 1: B1 heavy 1 with R105E, F107S, G111H, H113K, K370E
light 2: B1 light 2 with Q27K, R31W
heavy 2: not shown
Fold-improvement over 4E4 Ab (human CGRP receptor): 1.1 fold
IC50 (human CGRP receptor): 0.51 nM
Fold-improvement over 29G4v22 Ab (human PAC1 receptor): 2.1 fold
IC50 (human PAC1 receptor): 2.65 nM

B11: iPS:454903 (bispecific antibody, human IgG1, kappa, lambda, N297G)
light 1: B1 light 1
heavy 1: B1 heavy 1
light 2: B1 light 2 with Q27K, R31W
heavy 2: not shown
Fold-improvement over 4E4 Ab (human CGRP receptor): 0.5 fold
IC50 (human CGRP receptor): 1.16 nM
Fold-improvement over 29G4v22 Ab (human PAC1 receptor): 10.2 fold
IC50 (human PAC1 receptor): 0.72 nM

B13: iPS:454907 (bispecific antibody, human IgG1, kappa, lambda, N297G)
light 1: B1 light 1
heavy 1: B1 heavy 1
light 2: B1 light 2 with Q27K, R31W
heavy 2: not shown
Fold-improvement over 4E4 Ab (human CGRP receptor): 0.4 fold
IC50 (human CGRP receptor): 1.63 nM
Fold-improvement over 29G4v22 Ab (human PAC1 receptor): 5.4 fold
IC50 (human PAC1 receptor): 1.37 nM

B17: iPS:454569 (bispecific antibody, human IgG1, kappa, lambda, N297G)
light 1: B1 light 1 with S26Y, N31R, N32Y, Y33S, T72A
heavy 1: B1 heavy 1 with R105E, F107S, G111H, H113K, K370E
light 2: B1 light 2 with Q27K
heavy 2: not shown
Fold-improvement over 4E4 Ab (human CGRP receptor): 0.41 fold
IC50 (human CGRP receptor): 1.42 nM
Fold-improvement over 29G4v22 Ab (human PAC1 receptor): 3.8 fold
IC50 (human PAC1 receptor): 1.27 nM

B18: iPS:454729 (bispecific antibody, human IgG1, kappa, lambda, N297G)
light 1: B1 light 1 with S26Y, N31R, N32Y, Y33S, T72A
heavy 1: B1 heavy 1 with R105E, F107S, G111H, H113K
light 2: B1 light 2 with Q27K, R31Q
heavy 2: not shown
Fold-improvement over 4E4 Ab (human CGRP receptor): 1 fold
IC50 (human CGRP receptor): 0.53 nM
Fold-improvement over 29G4v22 Ab (human PAC1 receptor): 6.9 fold
IC50 (human PAC1 receptor): 0.97 nM

B19: iPS:454587 (bispecific antibody, human IgG1, kappa, lambda, N297G)
light 1: B1 light 1 with S26Y, N31R, N32Y, Y33S, T72A
heavy 1: B1 heavy 1 with R105E, F107S, G111H, H113K, K370E
light 2: B1 light 2 with Q27K, R31W
heavy 2: not shown
Fold-improvement over 4E4 Ab (human CGRP receptor): 0.9 fold
IC50 (human CGRP receptor): 0.58 nM
Fold-improvement over 29G4v22 Ab (human PAC1 receptor): 1.3 fold
IC50 (human PAC1 receptor): 4.36 nM

B21: iPS:454905 (bispecific antibody, human IgG1, kappa, lambda, N297G)
light 1: B1 light 1
heavy 1: B1 heavy 1
light 2: B1 light 2 with Q27K, R31W
heavy 2: not shown
Fold-improvement over 4E4 Ab (human CGRP receptor): 0.5 fold
IC50 (human CGRP receptor): 1.13 nM
Fold-improvement over 29G4v22 Ab (human PAC1 receptor): 9.2 fold
IC50 (human PAC1 receptor): 0.79 nM

B22: iPS:454733 (bispecific antibody, human IgG1, kappa, lambda, N297G)
light 1: B1 light 1 with S26Y, N31R, N32Y, Y33S, T72A
heavy 1: B1 heavy 1 with R105E, F107S, G111H, H113K
light 2: B1 light 2 with Q27R, R31L, S32A, R93F
heavy 2: not shown
Fold-improvement over 4E4 Ab (human CGRP receptor): 0.9 fold
IC50 (human CGRP receptor): 0.55 nM
Fold-improvement over 29G4v22 Ab (human PAC1 receptor): 3 fold
IC50 (human PAC1 receptor): 2.21 nM

B23: iPS:454565 (5606) (bispecific antibody, human IgG1, kappa, lambda, N297G)
light 1: B1 light 1 with S26Y, N31R, N32Y, Y33S, T72A
heavy 1: B1 heavy 1 with R105E, F107S, G111H, H113K, K370E
light 2: B1 light 2 with Q27K
heavy 2: not shown
Fold-improvement over 4E4 Ab (human CGRP receptor): 0.8 fold
IC50 (human CGRP receptor): 0.66 nM
Fold-improvement over 29G4v22 Ab (human PAC1 receptor): 5.9 fold
IC50 (human PAC1 receptor): 0.69 nM

B24: iPS:454897 (bispecific antibody, human IgG1, kappa, lambda, N297G)
light 1: B1 light 1
heavy 1: B1 heavy 1
light 2: B1 light 2 with Q27K
heavy 2: not shown
Fold-improvement over 4E4 Ab (human CGRP receptor): 0.5 fold
IC50 (human CGRP receptor): 1.14 nM
Fold-improvement over 29G4v22 Ab (human PAC1 receptor): 6.2 fold
IC50 (human PAC1 receptor): 1.04 nM

The remaining lines, values ahead:

Fold-improvement over 4E4 Ab (human CGRP receptor): 1.2 fold
IC50 (human CGRP receptor): 0.47 nM
Fold-improvement over 29G4v22 Ab (human PAC1 receptor): 5.5 fold
IC50 (human PAC1 receptor): 0.74 nM
B4: iPS:571015 (5603) (bispecific antibody, human IgG1, kappa, lambda, N297G)
light 1: B1 light 1 with S26Y, N31R, N32Y, Y33S, T72A
heavy 1: B1 heavy 1 with R105E, F107S, G111H, H113K, K369E
light 2: B1 light 2 with Q27K
heavy 2: not shown

Fold-improvement over 4E4 Ab (human CGRP receptor): 1.3 fold
IC50 (human CGRP receptor): 0.43 nM
Fold-improvement over 29G4v22 Ab (human PAC1 receptor): 7.2 fold
IC50 (human PAC1 receptor): 0.57 nM
B5: iPS:571009 (5602) (bispecific antibody, human IgG1, kappa, lambda, N297G)
light 1: B1 light 1 with S26Y, N31R, N32Y, Y33S, T72A
heavy 1: B1 heavy 1 with R105E, F107S, G111H, H113K, K370E
light 2: B1 light 2 with Q27K
heavy 2: not shown

Fold-improvement over 4E4 Ab (human CGRP receptor): 0.4 fold
IC50 (human CGRP receptor): 1.4 nM
Fold-improvement over 29G4v22 Ab (human PAC1 receptor): 9.8 fold
IC50 (human PAC1 receptor): 0.7 nM
B6: iPS:454919 (bispecific antibody, human IgG1, kappa, lambda, N297G)
light 1: B1 light 1
heavy 1: B1 heavy 1
light 2: B1 light 2 with Q27K, R31Y
heavy 2: not shown

Fold-improvement over 4E4 Ab (human CGRP receptor): 0.4 fold
IC50 (human CGRP receptor): 1.49 nM
Fold-improvement over 29G4v22 Ab (human PAC1 receptor): 9.5 fold
IC50 (human PAC1 receptor): 0.77 nM
B12: iPS:454909 (bispecific antibody, human IgG1, kappa, lambda, N297G)
light 1: B1 light 1
heavy 1: B1 heavy 1
light 2: B1 light 2 with Q27K, R31W
heavy 2: not shown

Fold-improvement over 4E4 Ab (human CGRP receptor): 0.4 fold
IC50 (human CGRP receptor): 1.34 nM
Fold-improvement over 29G4v22 Ab (human PAC1 receptor): 11.4 fold
IC50 (human PAC1 receptor): 0.61 nM
B14: iPS:454917 (bispecific antibody, human IgG1, kappa, lambda, N297G)
light 1: B1 light 1
heavy 1: B1 heavy 1
light 2: B1 light 2 with Q27K, R31W
heavy 2: not shown

Fold-improvement over 4E4 Ab (human CGRP receptor): 0.4 fold
IC50 (human CGRP receptor): 1.25 nM
Fold-improvement over 29G4v22 Ab (human PAC1 receptor): 10.5 fold
IC50 (human PAC1 receptor): 0.66 nM
B15: iPS:454915 (bispecific antibody, human IgG1, kappa, lambda, N297G)
light 1: B1 light 1
heavy 1: B1 heavy 1
light 2: B1 light 2 with Q27K, R31W
heavy 2: not shown

Fold-improvement over 4E4 Ab (human CGRP receptor): 0.3 fold
IC50 (human CGRP receptor): 1.98 nM
Fold-improvement over 29G4v22 Ab (human PAC1 receptor): 9.1 fold
IC50 (human PAC1 receptor): 0.81 nM
B16: iPS:454911 (bispecific antibody, human IgG1, kappa, lambda, N297G)
light 1: B1 light 1
heavy 1: B1 heavy 1
light 2: B1 light 2 with Q27K, R31W
heavy 2: not shown

Fold-improvement over 4E4 Ab (human CGRP receptor): 0.3 fold
IC50 (human CGRP receptor): 2.11 nM
Fold-improvement over 29G4v22 Ab (human PAC1 receptor): 5.2 fold
IC50 (human PAC1 receptor): 1.33 nM
B20: iPS:454913 (bispecific antibody, human IgG1, kappa, lambda, N297G)
light 1: B1 light 1
heavy 1: B1 heavy 1
light 2: B1 light 2 with Q27K, R31W
heavy 2: not shown
